In the RNAGym collection of RNA variant scans (doi:10.1073/pnas.2313332121):
Variants at the floor of the assay were thinned out.

B1: TPR 5TU (parent)
chain: GGAUCUUCUCGAUCUAACAAAAAAGACAAAUCUGCCACAAAGCUUGAGAGCAUCUUCGGAUGCAGAGGCGGCAGCCUUCGGUGGCGCGAUAGCGCCAACGUUCUCAACUAUGACACGCAAAACGCGUGCUCCGUUGAAUGGAGUUUAUCAUG

Variants of: B1
Assay: polymerase ribozyme fitness, log enrichment relative to wild type (log ratio); higher = more active; in vitro selection for triplet polymerase activity
How it was run: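 Streptavidin-bead capture of gel-excised extended constructs, followed by RT-PCR, closed a single triplicate in vitro selection round. That round began by annealing PCR-built, transcribed mutant libraries of each subunit of a heterodimeric triplet polymerase ribozyme with a biotinylated primer, the partner subunit and triplets, then incubating them frozen at −7 °C. After Illumina sequencing of inputs and outputs, genotypes needed ≥10 input reads and ≥1 read per output. Fitness is the base-2 logarithm of genotype enrichment over wild-type enrichment, using inverse-variance-weighted replicate averages.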

Variant | polymerase ribozyme fitness (log ratio)
C5G G136A | 0.0107
C5G A23C G68C G81C G83C U101G C118U G141U | ≤ -4.2
C5U A20U C57U G68A C72U G92A | ≤ -4.2
C5A U9C C85A | -2.68
U6G A17U A60G C93A A98U | -1.75
C5A A26G C36A C96A | ≤ -4.2
C5U U33A C38U C57G C93U A98U | ≤ -4.2
C5U A23U A24C G46A C96U A137U | ≤ -4.2
C5G A16U C43G C93G A106U A107U | ≤ -4.2
C5G A147C | -0.562
C5A C57A A119U A137G U146G | -2.37
U6C A24G U31A A52C C87U U90G G92U C93A | ≤ -4.2
C5G G67U G70C G86A C132G | ≤ -4.2
U4C C38G G59A U61A U148C | ≤ -4.2
C5G C8U A12U C27G G59C A66G U78C U101A C125G C131A U139C | -3.97
C5U C85G | -1.7
C5A U6G U82C C95G | -2.28
U6A A39U U101G C118G | ≤ -4.2
U6C A23G U61A | ≤ -4.2
U6A A20C U31C C96A U127C | -1.86
C5A C14G A19G C36A U102G C132G | ≤ -4.2

Variant | polymerase ribozyme fitness (log ratio)
U6A A17U G65A G83A G84U C87A G100A G141A | ≤ -4.2
C5G C8A C27U A49C U56A G94A C95G U109G | ≤ -4.2
U6A A19C A24U A28G G141C G152A | -3.96
U6A C93U | -1.6
U6A C93G | -3.92
U6C U44A U56A U61C A91G U130A C132U A150C U151G | ≤ -4.2
C5A C85U A97U G143A | -1.87
U6C C18U G59C A66U A73C U101G U139C U144A | ≤ -4.2
U4C U7C A17U A41C G68C U78A C99A C103G | ≤ -4.2
C5A A21G A41C A64U C85A C96U A110U G117U | ≤ -4.2
U6A C14G G34A C87U C105U U145G | -4.05
C5U A142U | -0.885
C5A A12C A19U U102G C116A A119G U135A G136C | ≤ -4.2
C5A G25C A41C C85U A89C A115G C132G U146C U148G | ≤ -4.2
C5G G84U | -2.38
C5A C93U C105U C149G | -3.96
C5A C27U U55G G83A G92U U148A | ≤ -4.2
U4G A41U G50C C85G | ≤ -4.2
U4C U15C A22C A29U C43G U44A U45G C57U G59U C93U | ≤ -4.2
U6G A24U C79A G84U C85U G117U G141A | ≤ -4.2
C5G U6G U7G C14G A28C A30C G50C C51G A89G C93G G94U C105U C116U G143U | ≤ -4.2

Variant | polymerase ribozyme fitness (log ratio)
C5U C38U C54U G94U A115U A119G G136U A147U | -3.8
C5G A12G G83A G94A G141C | -4.19
C5G U15A U45G U82C G92A A150U | ≤ -4.2
C5U A12C A40C U61A C95U | -2.18
U6C A19U A60C C87A A91U U134G | ≤ -4.2
C5G G141C | -0.606
C5U A30G A52U C76G G94A C118U U148A | ≤ -4.2
C5A A16G G50U C51A A89U U134G A137G G140A A142C A147C | ≤ -4.2
C5U C38U C85G U101C | -1.38
C5G A49G U61A C85G | ≤ -4.2
C5A G94U C95A C123A U135C | -3.89
C5A A66G C96U A115G U139G G140A | ≤ -4.2
U4G U7C A16G C96G | -2.73
U6A G62A C76A A91U A121U C123A A138C G141U | ≤ -4.2
U6C A22U A26U G84A U144A | -4.15
U4C C5A A24U A41G G46C C85U C96G | -3.3
C5U A41U G83A | -1.02
U6A C14U G65U A91G U148A | ≤ -4.2
C5U A66G C87U | ≤ -4.2
U6A A20G U56A G88U U102A C103G C132A U146G | ≤ -4.2
U4G A37U G81A C99A A106C U127G | ≤ -4.2

Variant | polymerase ribozyme fitness (log ratio)
C5G A23C A66G C69U A91G C105G A120U | ≤ -4.2
C5G U77A G94U G140C G152A | ≤ -4.2
U4G A41C A137C | ≤ -4.2
U6A A19G C38G U61A G94C C103G | ≤ -4.2
U6A C96U | -0.0433
U6A A20U C27U G46A C87A | ≤ -4.2
C5A C36U C79U A121G | ≤ -4.2
U6C C14G A40C A52U A91U | ≤ -4.2
U6C C57U G83U G84U A121U | -3.18
U4G C75G A91U G92A U101G C125U | ≤ -4.2
C5G C32G C72U A73G A91G A119U G141A | ≤ -4.2
U4C C51U C96A A121C U134A | -3.3
C5G C35U G59C C87U G100U C125G G133A U145C | ≤ -4.2
U6C U7G G59U G68C U82C G136U | ≤ -4.2
U6G A21C G152A | -2.84
C5U A52U A64C G70C C85A C116G A122U C125U A150G | ≤ -4.2
U4C A52G G58U | -0.303
C5G C99A | -0.989
C5G C76U | -0.335
U6A G50C A52C | ≤ -4.2
C5G A30C G81U A138C U144C | ≤ -4.2
